Test results from the RNAGym collection of RNA variant scans (doi:10.1073/pnas.2313332121).

B1: TPR t1 (parent)
chain: GACCAAUCUGCCCUCAGAGCUCGAGAACAUCUUCGGAUGCAGAGGAGGCAGGCUUCGGUGGCGCGAUAGCGCCAACGUCCUCAACCUCCAAUGCAUCCCACCACAUGAUGAUGCCUGAAGAGCCUUGGUUUUUUG

Variants of: B1
Assay: polymerase ribozyme fitness, log enrichment relative to wild type (log ratio); higher = more active; in vitro selection for triplet polymerase activity
Procedure, shortened: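 Libraries of mutants in each subunit of a heterodimeric triplet polymerase ribozyme were generated by PCR and transcribed. In triplicate, each went through one in vitro selection round: annealing with biotinylated primer, partner subunit and triplets; frozen incubation at −7 °C; gel excision of extended constructs; streptavidin-bead capture; RT-PCR. Fitness, taken from Illumina sequencing of input and output libraries, is the logarithm of a genotype's enrichment over wild-type enrichment, averaged across replicates with inverse-variance weights. The logarithm is base 2, and genotypes needed ≥10 input reads and ≥1 read per output to be kept.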

Variant	polymerase ribozyme fitness (log ratio)
G48A U54G C85U	-0.681
A50G U55G C79G A91C U109A	-6.64
A50C	-0.212
A50U	-0.868
A50G	0.111
G48A G77A C88U	-0.845
C49G U130A	-1.8
C49G A83U	-0.66
G48A U54A A84U U129A	-1.42
C49U C53A C104U	-0.231
G48C U78A	-0.274
A50C C115A U132C	-0.367
C49A C64U U129C U133C	-0.175
G48A G127C	-2.52
C49G C80U	-3.42
A50C C73A A74U	-1.27
G48U G57C U96A	-1.49
C49A C124U	0.812
C49G U106G U116C	-4.97
G48U U54G G58C U129A	-2.45
C49U U106A U116C	-1.79

Variant	polymerase ribozyme fitness (log ratio)
C49U G107A G120C U130G	-6.54
G48C	-0.943
G48U	-0.903
G48A	-0.658
C49G C82G	-1.03
A50G C56A C82A U131C	-1.25
C49A A83C	-1.24
C49A G71U U78A G120C	0.393
A50C U78G G110C G120A C124U	-4.98
G48U C62G	-3.39
G48U C62A	-1.81
G48U G110U	-2.84
G48C C49A C56U G93U	-1.8
G48U G107U A111C C123A	-5.41
G48A C70A G120U G128A G135A	-2.26
A50C C56G A121U	1.61
C49G G51A U54G	-4.1
C49G U92C	-1.53
C49U C101A	-1.69
A50G C70U G113C	-3.88
C49G U129C	-0.4

Variant	polymerase ribozyme fitness (log ratio)
C49A G71U	-0.754
C49A C101G C115A G120A	-2.2
C49A A91C C97G C99U G113A	-7.59
C49G C70U A84G U126G U129G G135C	-4.25
C49G U81G	-3.01
C49G G60U U78C C97A	-5.83
C49G C94G	-1.92
A50U C64U	-0.813
G48C C72G C104A G120C G128A	-4.3
G48U U87G C115G	-0.14
G48A G71C A105C	-4.88
G48A G63C C72U C124G	-0.71
G48A G122C C123G G127A	-2.37
A50C G63C C97U	-1.52
C49G G63C C80U U112A C124U	-5.99
C49U A118U	-0.365
G48A A66U U78G	-1.56
G48A C62A C82A C85G G110C U133A	-7.12
C49G G117C	-4.72
C49G G117U	-2.86
C49A G93C U112A	0.173

Variant	polymerase ribozyme fitness (log ratio)
C49A C56A U130C	-0.746
A50C G61U C79A	-2.63
C49G G60C C86U	-0.802
G48U U92C G120A G127C U134G	-1.91
G48U G120U	-0.428
G47U U81A G122U C123U U130C U131A	-2.99
A50G C99U G110C	-7.74
G48U A50G	-1.02
A50G C88A C97G	-4.42
G48U G58U G60U C82G	0.276
A50G C86A C115G	-2.42
C49U C53U	-0.552
A50G C99U	-3.27
A50U C56A C82G U87G G117A U132A	-4.26
C49G G69C	-1.79
C49G U125A	-0.51
C49A C85A G93C U106A	-1.01
G48A G117U	-2.2
C49A U54A C56U U112C	1.59
A50U C73A C76G U112A	-3.53
C49U C76G	-0.454
